According to article PMC8300624, “Prdx1 Interacts with ASK1 upon Exposure to H2O2 and Independently of a Scaffolding Protein” (Antioxidants, 2021):
Numbering of substitutions follows the chain as printed.

Assays:
[1] = biological target: T1, recombinant wild-type peroxiredoxin-1 (Prdx1 WT) (human, UniProt Q06830 1-199); experiment: BLI; Octet Red 96; His-tagged MBP-ASK1-TBD loaded on Ni2+-NTA sensors at 0.45 µM; Prdx as analyte at 1 µM or at different concentrations for kon and koff; 10 µM H2O2 (oxidizing condition); 25 mM Tris/HCl pH 7.4, 25 mM NaCl, 1% BSA, 0.05% Tween 20, 0.01 mM maltose; His-tagged MBP as reference; the paper takes the bond to be a mixed disulfide; conditions: both partners purified
T1 construct: peroxiredoxin-1 (Prdx1); In the BLI the protein was pre-reduced with DTT, desalted and then met the sensor in 10 µM H2O2 or 10 µM DTT; also called pET17-Prdx1; source: E. coli BL21, purified (Phenyl Sepharose, SP Sepharose, Superdex 75)
T1 sequence (looked up): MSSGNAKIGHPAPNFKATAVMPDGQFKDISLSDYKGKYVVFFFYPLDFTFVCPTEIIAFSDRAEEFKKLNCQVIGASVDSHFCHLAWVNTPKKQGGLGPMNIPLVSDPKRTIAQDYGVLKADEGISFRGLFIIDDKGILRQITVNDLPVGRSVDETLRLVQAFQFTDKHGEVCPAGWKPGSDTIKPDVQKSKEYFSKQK

[2] = biological target: T2, recombinant Prdx1 C173A (resolving cysteine mutant) (human, UniProt Q06830 1-199, C173A); experiment: as above; conditions: both partners purified
T2 construct: peroxiredoxin-1 (Prdx1) with C173A; purified by the same protocol as Prdx1 WT; source: E. coli BL21, purified (Phenyl Sepharose, SP Sepharose, Superdex 75)
T2 sequence (looked up): T1 sequence (looked up) with C173A

koff [1]: 0.0002 s⁻¹
kon [1]: 32700 M⁻¹ s⁻¹
koff [2]: 0.00228 s⁻¹
kon [2]: 7200 M⁻¹ s⁻¹
B1: 6xHis-MBP-ASK1-TBD (thioredoxin-binding domain of ASK1 with N-terminal His tag and maltose binding protein) (domain or fragment)
chain: SRRTTVAYVINEASQGQLVVAESEALQSLREACETVGATLETLHFGKLDFGETTVLDRFYNADIAVVEMSDAFRQPSLFYHLGVRESFSMANNIILYCDTNSDSLQSLKEIICQKNTMCTGNYTFVPYMITPHNKVYCCDSSFMKGLTELMQPNFELLLGPICLPLVDRFIQLLKVAQASSSQYFRESILNDIRKARNLYTGKELAAELARIRQR
modifications: Limits are not given; 88-302 is the usual recombinant ASK1-TBD construct and spans the listed TBD cysteines 120-250. His6-MBP-TEV carrier omitted. Assayed with 10 uM H2O2 (oxidizing) or 10 uM DTT …
